The values below come from article PMC7718890, “High-throughput screening to discover inhibitors of the CarD·RNA polymerase protein–protein interaction in Mycobacterium tuberculosis” (Scientific Reports, 2020).

For assay [1], the target named is CarD T8C labelled with BODIPY-FL (Mycobacterium tuberculosis) (UniProt P9WJG3). The assay can be described thus: fluorescence polarisation. In general terms: Fluorescence polarisation rises when a labelled molecule tumbles more slowly, as on binding a larger partner.
For assay [2], the target named is Mycobacterium tuberculosis RNA polymerase, wild type (Mycobacterium tuberculosis) (UniProt P9WGY9). The assay can be described thus: fluorescence polarisation.

A word on the Kd: it is the constant that tells how readily two partners part at equilibrium. Low values mean tighter binding, high ones weaker binding. Broadly, the Ki is a measure of affinity in units of concentration, obtained from inhibition or displacement. Read a low Ki as a stronger hold on the target.

Regarding “Mycobacterium tuberculosis RNA polymerase, wild type (from UniProt P9WGY9 8-1140) (complex)”, the Kd in assay [1] was 65 nM. In other words, the double-digit nanomolar range. In assay [2], “Wild-type MTB CarD, unlabeled (from UniProt P9WJG3 1-162) (natural protein)” registered a Ki of 8 nM.
